One protein from PMC2862297 (Journal of molecular biology, 2010) can be followed below.

The data set concerns the molecule itself. Kind of data set: cryo-EM structure.

B1: LTag108-627 deletion mutant of SV40 large T antigen (domain or fragment)
chain: EMPSSDDEATADSQHSTPPKKKRKVEDPKDFPSELLSFLSHAVFSNRTLACFAIYTTKEKAALLYKKIMEKYSVTFISRHNSYNHNILFFLTPHRHRVSAINNYAQKLCTFSFLICKGVNKEYLMYSALTRDPFSVIEESLPGGLKEHDFNPEEAEETKQVSWKLVTEYAMETKCDDVLLLLGMYLEFQYSFEMCLKCIKKEQPSHYKYHEKHYANAAIFADSKNQKTICQQAVDTVLAKKRVDSLQLTREQMLTNRFNDLLDRMDIMFGSTGSADIEEWMAGVAWLHCLLPKMDSVVYDFLKCMVYNIPKKRYWLFKGPIDSGKTTLAAALLELCGGKALNVNLPLDRLNFELGVAIDQFLVVFEDVKGTGGESRDLPSGQGINNLDNLRDYLDGSVKVNLEKKHLNKRTQIFPPGIVTMNEYSVPKTLQARFVKQIDFRPKDYLKHCLERSEFLLEKRIIQSGIALLLMLIWYRPVAEFAQSIQSRIVEWKERLDKEFSLSVYQKMKFNVAMGIGVLD
For B1, the “stoichiometry N” value came out at 12.

In general, stoichiometry N refers to a count of units in the complex or per binding partner.
